Patent publication US20180135060A1 (OURO FINO SAUDE ANIMAL LTDA, published 2018)

Target: T1, Rrp4 protein of the Pyrococcus abyssi exosome, as encoded by pMRKA-EXO (Pyrococcus abyssi, UniProt Q9V120 2-263)
T1 construct: Co-expressed in E. coli; also called PAB0419
T1 sequence: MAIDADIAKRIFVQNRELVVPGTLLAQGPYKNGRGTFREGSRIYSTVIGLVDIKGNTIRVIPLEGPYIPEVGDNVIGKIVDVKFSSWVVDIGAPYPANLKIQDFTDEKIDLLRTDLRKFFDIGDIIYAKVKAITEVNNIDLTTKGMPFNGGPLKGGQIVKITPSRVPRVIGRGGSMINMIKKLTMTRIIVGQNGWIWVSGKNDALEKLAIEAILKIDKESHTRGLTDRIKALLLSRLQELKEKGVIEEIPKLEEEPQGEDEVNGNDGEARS
Assay: co-expression in E. coli and co-purification, gel (FIG. 11)

B1: Rrp41 protein of the Pyrococcus abyssi exosome, as encoded by pMRKA-EXO (R89T, K91S) (other)
chain: MATRAEKPEGLKLIDENGRRIDGRKKYELRPIKMEVGVLKNANGSAYIEWGKNKIIAAVYGPRELHPKHLQRPDRAILRVRYNMAPFSVEETKSPGPDRRSIEISKVIKGALEPALILEMFPRTAIDVFIEVLQADAGTRVAGITAASLALADAGIPMRDLVAACAAGKIEGEIVLDLNKEEDNYGEADVPVAIMPLKNDITLLQMDGYLTKDEFIEAVKLAIKGAKAVYQKQREALKEKYLKIAQEVEGS
notes: also called PAB0420
B1: binds.
